Data reported in patent publication US20260242478A1 (published 2026).
Where no end group is shown, it is not given here.

B1: Phage-3230 (peptide)
peptide: LGIYCVPEWMCQGF
notes: also called Peptide-180 library clone
B2: Phage-3234 (peptide)
peptide: DGIRCVPNWMCVGF
notes: as for B1
B3: Phage-3237 (peptide)
peptide: EYHKCIPEWMCAGF
modifications: cysteine pairing not given here; also: fused to phage pIII, fusion site not given here
notes: as for B1
B4: Phage-3229 (peptide)
peptide: ITPLCSPAWMCQGL
notes: as for B1
B5: Phage-3233 (peptide)
peptide: PYAMCEPAWMCSGF
modifications: cysteine pairing not given here; also: fused to phage pIII, fusion site not given here
notes: as for B1
B6: Phage-3227 (peptide)
peptide: PIVKCSPAWMCSGF
notes: as for B1
B7: Phage-3238 (peptide)
peptide: WEHRCTPEWMCTGF
notes: as for B1
B8: Phage-3231 (peptide)
peptide: VTAYCVPPWMCAVF
notes: as for B1
B9: Phage-3226 (peptide)
peptide: LTVLCEPAWMCVGF
notes: as for B1
B10: Phage-3235 (peptide)
peptide: VERLCMPEWMCLGF
notes: as for B1
B11: Phage-3232 (peptide)
peptide: IVKACKPEWMCVGF
notes: as for B1
B12: Phage-3228 (peptide)
peptide: VGHVCLPPWMCTGF
notes: as for B1
B13: Phage-3236 (peptide)
peptide: PLPMCVPAWMCAGF
modifications: cysteine pairing not given here; also: fused to phage pIII, fusion site not given here
notes: as for B1
B14: Phage-3225 (peptide)
peptide: GEVLCRPIWMCNGF
notes: not shown: pIII filament protein of the bacteriophage
B15: Phage-3217 (peptide)
peptide: IELFCKPAWMCDGF
notes: as for B14
B16: Phage-3214 (peptide)
peptide: MAPYCVPSWMCWGF
notes: as for B14
B17: Phage-3216 (peptide)
peptide: VEPLCVPSWMCQGI
notes: as for B14
B18: Phage-3221 (peptide)
peptide: LQILCKPQWMCEGL
notes: as for B14
B19: Phage-3218 (peptide)
peptide: DVHLCKPSWMCAGF
modifications: cysteine pairing not given here; also: fused to phage pIII, sequence not given here
notes: as for B14
B20: Phage-3215 (peptide)
peptide: LDLRCQPPWMCMGF
notes: as for B14
B21: Phage-3213 (peptide)
peptide: AIAMCVPSWMCTGL
modifications: cysteine pairing not given here; also: fused to phage pIII, sequence not given here
notes: as for B14
B22: Phage-3219 (peptide)
peptide: DQVMCKPIWMCEGF
notes: as for B14
B23: Phage-3220 (peptide)
peptide: IPRACIPAWMCQGF
notes: as for B14
B24: Phage-3222 (peptide)
peptide: MELKCVPKWMCAGF
modifications: cysteine pairing not given here; also: fused to phage pIII, sequence not given here
notes: as for B14
B25: Phage-3223 (peptide)
peptide: PQWMCKPEWMCNGF
notes: as for B14
B26: Phage-3224 (peptide)
peptide: ITALCKPAWMCDGF
notes: as for B14
B27: Phage-3109 (peptide)
peptide: VEAMCKPWWMCEGL
notes: Clonal phage of the peptide-180 library; not shown: pIII filament protein of the bacteriophage, fused to the peptide
B28: Phage-3107 (peptide)
peptide: PVAVCKPEWMCIGF
notes: as for B27
B29: Phage-3111 (peptide)
peptide: IEIMCMPRWMCDGF
notes: as for B27
B30: Phage-3110 (peptide)
peptide: VVQLCRPSWMCQGF
notes: as for B27
B31: Phage-3113 (peptide)
peptide: NGVVCQPPWMCFGF
notes: as for B27
B32: Phage-3108 (peptide)
peptide: SEVVCVPTWMCTGF
notes: as for B27
B33: Phage-3114 (peptide)
peptide: VPRYCVPQWMCAAF
notes: as for B27
B34: Phage-3112 (peptide)
peptide: EPQMCIPRWMCDGF
notes: as for B27
B35: Phage-3106 (peptide)
peptide: NPMYCKPSWMCEGF
notes: as for B27
B36: Phage-3297 (peptide)
peptide: VAVMCRPAWMCYGF
B37: Phage-3298 (peptide)
peptide: ETFKCVPEWMCTGL
B38: Phage-3295 (peptide)
peptide: TEVMCRPLWMCAGF
B39: Phage-3296 (peptide)
peptide: VVIQCQPAWMCDGF

Target: T1, PSMA Fab (biotinylated (site not stated))
T1 construct: The panning ELISA names only 'biotinylated PSMA Fab' captured on neutravidin coated plates; also called Anti-PSMA Fab; 006 PSMA Fab
Assay: clonal phage ELISA; biotinylated PSMA Fab on neutravidin plate, blocking buffer alone; anti-M13 HRP detection;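 note: crude clonal phage supernatants added without washing to wells pretreated with blocking buffer with or without PSMA antigen, short incubation, then washed before detecting bound phage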

Binder | Phage binding ELISA signal, Anti-PSMA Fab
B1 | 1.95
B2 | 1.95
B3 | 1.94
B4 | 1.95
B5 | 1.95
B6 | 1.95
B7 | 1.94
B8 | 1.95
B9 | 1.95
B10 | 1.95
B11 | 1.95
B12 | 1.95
B13 | 1.95

Target: T2, PSMA Fab (biotinylated (site not stated))
T2 construct: Biotinylated PSMA Fab captured on neutravidin coated plates in the phage ELISA; also called Anti-PSMA Fab; 006 PSMA Fab
Assay: clonal phage ELISA on biotinylated PSMA Fab captured on neutravidin; anti-M13 HRP detection

Binder | phage binding ELISA signal
B14 | 1.95
B15 | 1.97
B16 | 1.97
B17 | 1.97
B18 | 1.96
B19 | 1.96
B20 | 1.97
B21 | 1.97
B22 | 1.96
B23 | 1.96
B24 | 1.96
B25 | 1.96
B26 | 1.96

Target: T3, PSMA Fab (biotinylated (site not stated))
T3 construct: Biotinylated PSMA Fab captured on neutravidin coated plates for the clonal phage ELISA; also called Anti-PSMA Fab; 006 PSMA Fab
Assay: clonal phage supernatant ELISA on biotinylated PSMA Fab captured on neutravidin; anti-M13-HRP detection

Binder | Phage binding ELISA signal, Anti-PSMA Fab
B27 | 2.08
B28 | 2.08
B29 | 2.08
B30 | 2.08
B31 | 2.08
B32 | 2.08
B33 | 2.08
B34 | 2.08
B35 | 2.08

Target: T4, PSMA Fab
T4 construct: In the phage ELISA the PSMA Fab was biotinylated and captured on neutravidin coated plates; also called Anti-PSMA Fab; 006 PSMA Fab
Assay: clonal phage ELISA on biotinylated PSMA Fab captured on neutravidin plates, anti-M13 HRP detection;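 note: crude clonal phage supernatants tested, before phage were added, wells were pretreated with PSMA antigen in blocking buffer or with blocking buffer only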
Protocol: (§1) Clonal phage were harvested as crude supernatants and screened via standard ELISAs. […] Prior to the addition of clonal phage. wells were incubated with blocking buffer and PSMA antigen or blocking buffer alone. Without washing or aspirating, clonal phage supernatants were then added to the wells and incubated for a short time. Wells were then washed followed by detection of bound phage using a horse radish conjugated anti-M13 antibody.

Binder | Phage binding ELISA signal, Anti-PSMA Fab
B36 | 1.88
B37 | 1.88
B38 | 1.89
B39 | 1.88

Target: T1, PSMA Fab
Assay: clonal phage ELISA; biotinylated PSMA Fab on neutravidin plate, wells pre-incubated with PSMA antigen as competitor; anti-M13 HRP detection;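 note: crude clonal phage supernatants added to antigen-treated wells without a wash, incubated briefly, then bound phage read out via horse radish–conjugated anti-M13 antibody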
Protocol: as §1

Binder | Phage binding ELISA signal, Anti-PSMA Fab with PSMA antigen
B1 | 0.0818
B2 | 0.0969
B3 | 0.0924
B4 | 0.055
B5 | 0.0697
B6 | 0.0757
B7 | 0.0937
B8 | 0.102
B9 | 0.0827
B10 | 0.126
B11 | 0.0754
B12 | 0.0697
B13 | 0.133

Target: T3, PSMA Fab
Assay: clonal phage supernatant ELISA on PSMA Fab pre-incubated with PSMA antigen as competitor; anti-M13-HRP detection
Protocol: as §1

Binder | Phage binding ELISA signal, Anti-PSMA Fab with PSMA antigen
B27 | 0.0719
B28 | 0.105
B29 | 0.101
B30 | 0.281
B31 | 0.0794
B32 | 0.0805
B33 | 0.0864
B34 | 0.135
B35 | 0.0958

Target: T2, PSMA Fab
Assay: clonal phage ELISA on plate-bound PSMA Fab pre-incubated with PSMA antigen as competitor
Protocol: as §1

Binder | phage binding ELISA signal
B14 | 0.123
B15 | 0.111
B16 | 0.145
B17 | 0.076
B18 | 0.0882
B19 | 0.0706
B20 | 0.0778
B21 | 0.0711
B22 | 0.0928
B23 | 0.101
B24 | 0.0684
B25 | 0.0807
B26 | 0.109
